Reference: article doi:10.1101/2020.06.23.167452v1 (biorxiv, 2020)

What was measured:
[1] = target: T1, TcAK (arginine kinase from Trypanosoma cruzi) (Trypanosoma cruzi, UniProt O96507); experiment: coupled pyruvate kinase / lactate dehydrogenase assay, NADH at […] nm; type: biochemical
T1 sequence (O96507 1-357): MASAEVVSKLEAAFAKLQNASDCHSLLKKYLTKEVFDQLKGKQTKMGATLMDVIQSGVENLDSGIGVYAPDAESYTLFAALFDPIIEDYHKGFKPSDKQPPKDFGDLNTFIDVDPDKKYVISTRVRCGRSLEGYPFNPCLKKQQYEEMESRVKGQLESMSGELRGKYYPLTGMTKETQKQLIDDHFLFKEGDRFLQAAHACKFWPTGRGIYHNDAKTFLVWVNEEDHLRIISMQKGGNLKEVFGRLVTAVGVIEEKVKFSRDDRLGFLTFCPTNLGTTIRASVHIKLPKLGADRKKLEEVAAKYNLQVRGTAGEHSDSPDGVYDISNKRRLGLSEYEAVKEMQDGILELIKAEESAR

purified protein [2] = substrate: N=C(N)NCCC[C@H](N)C(=O)O; experiment: purified protein; conditions: no delphinidin, ATP 1.5 mM, 1.5 mM MgCl2, Tris-HCl pH 8.2
purified protein [3] = substrate: Nc1ncnc2c1ncn2[C@@H]1O[C@H](COP(=O)(O)OP(=O)(O)OP(=O)(O)O)[C@@H](O)[C@H]1O; experiment: purified protein; conditions: no delphinidin, arginine 10 mM, 1.5 mM MgCl2, Tris-HCl pH 8.2

## Oc1cc(O)c2cc(O)c(-c3cc(O)c(O)c(O)c3)[o+]c2c1 [delphinidin]
[1]
  Ki: 1320 nM

B1: TcAK (arginine kinase from Trypanosoma cruzi) (Trypanosoma cruzi) (protein)
chain: T1 sequence (O96507 1-357)
Purified protein [2]
  Km: 810 ± 330 µM
Purified protein [3]
  Km: 200 ± 330 µM
